{
  "source": "the DeepSol protein solubility set",
  "data": [
    {"assay": "soluble on expression in E. coli; label from the status in PepcDB or PDB records", "values": [
      {"sequence": "MGHHHHHHSHMITREEIANVLDQPVYDGDGNKIGDAKHVFFDDMTGRPEWVSVKTGMFGSTESFVPIRDAALVQDHLEVPYGKDQVKGAPSVDVDAGGHLSETEEHRLYDYYGINWDSVLSEAERTDDDRFAAGPGTAGAAGTAGAAGLAGTAGAAGAAGTAGGRTGREDAMRREGMRGDEGAMRREGMRGDEAMTRSEEQMHIGVERHESGRARLRKYVVTEEVQQTVPVTHEEVRVVREPITDANRDEALAGPEISEAEHEVTLHAERPVVETETVPVERVRMTTEELTENETVRGQVRKERIEAETESFTEGETKNARDDKRRGGK", "soluble on expression in E. coli": "soluble"},
      {"sequence": "MSLRVFLTGATGFVGSHVLKELLAAGHQVTGLTRSDAGGRWLVQAGASVHRGTLEDAGSLARGAEQADAVIHTAFDHVFSRYLENCAKDARVISAMAEVLKGSNRPLIITSATGIGAPGAGLPAVEEVVDWAHALPRIASERAGREAADKGVSVAVVRLPQVHDTEKQGLISPLIDIGRAKGVSAYVGDGSNHWSAVHIDDAARLYRLALEHHEAGARYHAVAEEGVSMRQIAETIGAGLGVPVLALQADEVVGHFGWLAPFMAMDMRASSAATRRRLNWTPTGPDLLTDLKAMDYRKLRTASEGHHHHHH", "soluble on expression in E. coli": "soluble"},
      {"sequence": "MSATRHRSDGHEEIVALDALPLSAAIRRRELSCREVMQAYLAQIERFNPRVNAIVSLQAESRLLTQADERDRQLARGEWLGWMHGMPQAIKDLAATSGIPTTLGSPLFAGQVPEHDAIVVERVKSSGAIVIGKTNVPEFGLGSQTYNPLFGTTRNAYDPARIAGGSSGGAAVALALRMLPVADGSDMMGSLRNPAAYNNVYGFRPSQGRVPHGPQAELFVQQLATEGPMGRSVADLARLLATQAGYDPRCPLSLRDDPRRFADDLGRDFRGARLGWLGDYAGYLPMEEGVLELCEAALGDFAELGCDVEACLPDYPLERLWRTWLVHRQWLVQGSLGELYADPARRVRLKPEAQWEVESGLGLGAAEVYRASLDRSDWYRALARLFERYDFLLLPSAQVFPFDAETAWPRQVAGRPMDTYHRWMEVVIGPTLAGLPAISVPIGFGAAGLPMGLQIIGPAQADLAVLQLAHAHEGLTRWVSRRPPAMLEAPGGI", "soluble on expression in E. coli": "not soluble"},
      {"sequence": "MGSDKIHHHHHHMRYFSTDSPEVKTIVAQDSRLFQFIEIAGEVQLPTKPNPFQSLVSSIVEQQLSIKAASAIYGRVEQLVGGALEKPEQLYRVSDEALRQAGVSKRKIEYIRHVCEHVESGRLDFTELEGAEATTVIEKLTAIKGIGQWTAEMFMMFSLGRLDVLSVGDVGLQRGAKWLYGNGEGDGKKLLIYHGKAWAPYETVACLYLWKAAGTFAEEYRSLEELLHHGNQC", "soluble on expression in E. coli": "soluble"},
      {"sequence": "MGSDKIHHHHHHMYVENACYQKAILPEHVGNALIESLPKKLTDEELVDKLANYPKCLTEDTQNDPEIRAEYLTRIKRLRQPQLVYFDVFRAVEIAIKDGYSAKNPLSPTTMNYLHYSLEDRPIIEPNTGFFKPKGCGITIIGESGVGKTSMLEQVLSIYPDVIKHQSYSGMSLPLTQVVWLKVDCPDDSSVKGLCHRILDEIDRKLDIKDTKPQNTIALLIKQIEAKMKSNYLGILVIDEMQNLNTAKAGGAERLLGFLHNLMNNLGIPILFCANPPFDKLLSKTLKAARRAESGGYFDIGLLKNSEDEWGLFVDELWKLQWTNVQTPLTQDLSDRLFNLSVGNMDLAVRIFYASQRAVIGSLNERITTDVLDKGASIAIRASKSTTDELRLSLLKRKNESKKETPNNEASEEAKVITESKGKFVTIPGDLSRPHHPEFAERITELQYEDDLHALIEDPALIQRASEEEHPLDMLKSAGLFCEDPLKTFG", "soluble on expression in E. coli": "not soluble"},
      {"sequence": "MSTPRPSLTLTLLQAREAAMSFFRPSLNQHGLTEQQWRVIRILRQQGEMESYQLANQACILRPSMTGVLARLERDGIVRRWKAPKDQRRVYVNLTEKGQQCFVSMSGDMEKNYQRIQERFGEEKLAQLLELLNELKKIKP", "soluble on expression in E. coli": "soluble"},
      {"sequence": "MEKKFPTVVTIGGRRYVKNNLNRKSEDCKMKLKEALKSFGRRVQKLQMSHCTIEKGTSLHVYKLDDARVIFTKKNKPIGFVVTGKAEEIDKSVYEKASSEINDATGKPNEPGAEERAEKDDASLID", "soluble on expression in E. coli": "not soluble"},
      {"sequence": "MSDLLDTVRGLAKKTDSKILMVVLDGVGGLPLTVNGDTELATARTPNLDALAQESQLGQLELVGAGITPGSGPGHLSLFGYDPLKYVVGRGALSAVGIGVKLNRGDVAVRGNFATLGAGRLILDRRAGRPSDEKNAEIVAKLRAAIPEIDGVAVEVYTESEHRFVVVFRAPEGQPLGANISDVDPQVTGVEPKTAIANDPSSEVTAGLINTFVARAEVALADEPQVNGVLFRGYSDVPHFPSFEDAYQLKAACIASYPMYKGLASLVGMDVLPVEGHEDALEGKVKALRENWAKYDFFYFHIKKTDSTGEDGDFAEKVHKIELFDELLPQLLELQPDVIAVVGDHSTPSKLKSHSWHPVPLLIRSNYGRRDPAQRYTEEEAARGTLGLRHGPDLMPLLMANALKLNKYGALEHHHHHH", "soluble on expression in E. coli": "soluble"},
      {"sequence": "MSLSNQLLLGMSEFGLSYIINFSEFNQHVLVPATTGSGKTTLLQLLVQHAVKFNFPVILIDGKGARDTLESMREIAKFYDKEVHAFTDDGDMRYNPVEHGNDISIRDKLVSLAETESVFYSGAAKALLQVTIQLLDEFKGAKVTLSGDTRTTETVERSLPFVQRFLLPRNVLHLFADAILPNNPKLFEIEVEKKIQKPKKKSVKEGSEILPDSDLDKEEKEEDSQIKNSKFRNISQLGIAQKETETIVLNPETLDLDSYYLLLKRNLRYLPTDKETGENIKQKLFERLFIRYEHKDSPFYLYATSEALQTNINMLLDSELGKLFDTKNAKNVLDVQEIVNQRKLVYVSFNGLIYKEYIRTLAQMLVGDVNYFASEMYRKNVKREVLVIFDEPASYLNETFIDMVNKGRGAGVYGIFTPQTMADIAKLGDKLMEQLVGNVNTLFIGKTNEKGEAEYWSETMGTYQDIDVTSVTEQEDGYSDVGKSDWSGDRGTKRNVDRFKISPNKIKELRTGEFIIYRTAENVNLPPQKVYVRNALEWLQKSNSEGHHHHHH", "soluble on expression in E. coli": "soluble"},
      {"sequence": "MEELTIWEQHTATLYKDPRRGFGIAVSGGHDRASGSVVVSDVVPGGPAEGRLRTGDHIVMVNGVSVENVTSAFAIQILKTCTKTANVTVKRPRRVQLPATKASPASGHQLSDQEEADHGRGYEGDSSSGSGRSWGERSRRSRAGRRGRVGSHGRRSSGGGSEANGLDLVSGYKRLPKQDVLMRPLKSVLVKRRNSEEFGVKLGSQIFIKHITESGLAARNHGLQEGDLILQINGVSSANLSLSDTRRLIEKSEGELTLLVLRDSGQFLVNIPPAVSDSDSSLMEDISDLTSELSQAPPSHVPPPPLKGQRSPEDSQTDSPVETPQPRRRERSVNSRAIAEPESPGESRYDIYRVPSRQSLEDRGYSPDTRVVSFPKGASIGLRLAGGNDVGIFVSGVQAGSPADGQGIQEGDEILQVNGMPFRNLTREEAVQFLLGLPPGEDMELVTQSKQDIFKKMVQSRVGDSFYIRTHFELEPSPPYGLGFTRGDVFHVVDTLYPGSGPGHGHSSHGGLWLAARMGRDLREQERGVIPNQSRAEQLASLEAAQRAAGVGPGASVGSNPRAEFWRLRGLRRGTKKASTQRSREDLSALTRQGHYPPYERVVLREASFKRPVVILGPVADIAMKKLTTEMPEEFEIAESMSRTDSPSKIIKLDTVRVIAERDKHALLDVTPSAIERLNYVQYYPIVIFCAPESRPALKALREWLAPASRRSSRRLYAQAQKLQKHSGHLFTATIPLHGTSDSWYQEVKAVIQQQQARPIWTAEDQLNSSSEDLDLPGHGLAASSGDLSCDSRTNSDYEDTDGEGAYTDREGGPQDVDEEVAPTALARSSEPVWVDDHQGLMGHGTTITDKWETQADSHYTQDQRRQDSMRTYKHEALRKKFTRARDVESSDDEGYDWGPATDL", "soluble on expression in E. coli": "soluble"},
      {"sequence": "ESLCPQHHEALSLFCYEDQEAVCLICAISHTHRAHTVVPL", "soluble on expression in E. coli": "soluble"},
      {"sequence": "MSAASEAVSGALFQHLFRIFSLFADQNEKGTFKPAQAEFLIDELLRELRRQTTPKVHDLPENVTFNEFLNLLQVIFPDREDLLIATNRVFERYVNHVIGKGFVLFRKLSQKRGCLPFKRRTEDWQFGWLQVLPGVAEIRKQNSDIDDIIQFDEDTVIEPPVIDEDASVWSVICNSTTAFQFSHLDPIMAQLFVKGFLTYWKLNLKYFFSDMRSARDFPTREELAVFDYKRSLKSRPTKEGKSRKELETERCRLESELEEEKKNRKDEEIVRGLTTRLLKQEMEKSEQMQQVIYELRSKLDNGENEAGVDDEDIVDVEMIEDEISEDVGENEEISITLPSREEKIQQYAYHLYATQAEEHVTSDDEEIWKQNYNLIVSTHFTDTMWKSCKPIVYCSEIVSQIVNQSPFIFLINLNNDLHNRATLGLTTYLVSYRFPCSFFLIELKMTKLRVGFIGYGHLGKFLVEKLRLLPEEFEIVKIWNRSVGEPGVQGLETLTAENLKDIDLVVEVAHPKIIADYGELILEHCDLFAGSPTCFANQELLEKLTKLSLSHGKKLLIPAGALWGANDIQKMADVGSLKGLTVTMIKHPTSFKLGSPLFEINEKAKLEETNETVLYEGSVRGLCPLAPNNVNTMAGGALAASNLGFDEVKAKLISDPKMTDWHVVEVRVEGDDGFEVITRRNNPAKPGAVTGQLTYYSFLSSIKESRYKPIGVQLC", "soluble on expression in E. coli": "not soluble"},
      {"sequence": "MARLAIGGGSLCPAYGALRMQPVSTFPIYIVSIARARARLEKMLEGASGLGLDLRPVEGVDGKTISPDDWRDFDRRGFELRNGRHALPGEYGCYASHIKALETFLATDAPVAVIVEDDVAFTPDFSERVKAMVAAMPDDAIVKLTNHRRKGFKARKTSALGDTFGRCIYGPQGSSACYIISRRAAERFLKAARRMTLPFDRALECGWGYGTEVYITDKDFLPFGDPDTLVGTRDEYRGSKFARLKRVPAYLSSFYDNIARYIYAYRLEHHHHHH", "soluble on expression in E. coli": "soluble"},
      {"sequence": "MGSDKIHHHHHHMALLEVKNLKKYFPIIKRGFRRKVVGYLKAVDGISFHIEEGETLGLVGESGCGKTTTAKLIMRGIEPTEGEIVLNMDGEKVDITKLSEKELREKGVRRFLQMIFQDPYSSLNPRMTVRDIIAEPLVVNGVIKGKEEIDAIVSDLLRAVGLRPEYMQRYPHAFSGGQRQRIAIARAIALKPKLVLCDEPTSALDVSVQAQIINLLKDLQKEYNLTYLFISHDLGVVEHITNRVAVMYVGRIVELAETEELFSSPKHPYTEALLSAVPKPDPKRKRKKAQLTGEVPDPSNPPSGCYFHPRCPYAKAICKEVYPDLRNVGTDQNPHLVACHFADSLKLEGVGTM", "soluble on expression in E. coli": "not soluble"},
      {"sequence": "MAHHHHHHMTLENKALLCLIKKYEEKNKFLNVVEYIHYVCTNLYSYEENLNYNIMYDEFLKDLKKYLKENILDYKHILENILLKTDINYVNEQNIVNDILSKKKIYDISFEEVKNTTMKSEYSMENIKTSVKTENKDISLNKEECNKDDHVQEDNIDKYNGLEGKNREKNICRNWKDEKSQHEFYQLQSFEKNENREWFRVDPNLNWKEKQQLIYNEIEKLKNEIKKITVHSESTKIIISSMICQSKIFLYELEDNIKDYKILKEKIMNDKYLLKKGDYINEVYNGIIQNQRIKIDNVKKTNKTLLNLYNKKFSNINYIISLNENINNVDFLYLNVLIHNRKETPQPYEQLQNKIPEYTNKEKEIFSNIEKNNDSLNLLDNLIVDITNKIDTNMDITNK", "soluble on expression in E. coli": "not soluble"},
      {"sequence": "MVWDVETAKRFLEIIKDEPIYYPALIALHTGMRAGEILSLKWCDVNFETRVISIVKSERKNRGLKTVNLKTKTSKRAVYMNDILYKELKNLYEITKPKPDDFVCPRLPTGNLTVNYLSRKFKKLVKKHNFPLIRFHDLRHTFATLMLSLGVNTKIVAEILGHSDIKLTADTYSHVLPTMQEEAMKEFVKLWKLEHHHHHH", "soluble on expression in E. coli": "not soluble"},
      {"sequence": "KPKFFYIKSELNGKVLDIEGQNPAPGSKIITWDQKKGPTAVNQLWYTDQQGVIRSKLNDFAIDASHEQIETQPFDPNNPKRAWIVSGNTIAQLSDRDIVLDIIKSDKEAGAHICAWKQHGGPNQKFIIESE", "soluble on expression in E. coli": "soluble"}
    ]}
  ]
}
